Here are results for three molecules from patent US20160340421A1 (Regeneron, published 2016).

Experiment [1] concerns the target T1, Human GDF8 homodimer (mature human Growth and Differentiation Factor-8) (human, UniProt O14793 267-375).
T1 construct: also called hGDF8; myostatin
T1 sequence: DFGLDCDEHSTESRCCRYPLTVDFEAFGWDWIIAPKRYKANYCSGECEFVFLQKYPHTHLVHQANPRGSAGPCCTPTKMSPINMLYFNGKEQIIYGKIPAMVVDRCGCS
The experiment can be described thus: SPR, antibody captured, buffer without BSA. The protocol:
(§1) Equilibrium dissociation constants (KD values) for antigen binding to selected antibodies were determined by surface kinetics using a real-time biosensor surface plasmon resonance assay (BIACORE™ 2000). Each selected antibody was captured on either a goat anti-mouse IgG polyclonal antibody surface or a goat anti-hFc polyclonal antibody (Jackson Immuno Research Lab) surface created through direct chemical coupling to a BIACORE™ chip to form a captured antibody surface. Human GDF8 homodimer, hGDF11 homodimer, or hGDF5 homodimer at 25 nM was injected over the captured antibody surfaces, and antigen-antibody binding and dissociation were monitored in real time at room temperature. Kinetic analysis was performed to calculate KD, dissociation rate constants (kd), association rate constants (ka) and half-life of antigen/antibody complex dissociation (Table 2).
In general terms: In SPR one partner is held on a chip, and binding of the other changes the refractive index at the surface.

Experiment [2] has as its target T1, Human GDF8 homodimer (mature human …). In words: cell-based or functional assay.
The target of experiment [3] is T2, B48 chimera: GDF8.1-47.BMP2.48-77.GDF8.73-109.
T2 construct: CHO.hFurin supernatant
T2 chain: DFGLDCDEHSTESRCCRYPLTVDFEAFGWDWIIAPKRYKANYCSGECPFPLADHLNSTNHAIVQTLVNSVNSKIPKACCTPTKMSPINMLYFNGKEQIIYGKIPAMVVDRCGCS
In words: Western blot of CHO.hFurin supernatant. How it is done: (§2) The various chimeric GDF8 pro-proteins were transiently transfected in an engineered stable CHO.hFurin cell line. A similar Western Blot analysis as described above was used to detect the binding of various anti-hGDF8 antibodies to each of the chimeric GDF8. Briefly, […] of CHO supernatant were loaded onto each lane of an SDS-PAGE (non-reducing or reducing) gel and electroblotted onto a PVDF membrane. The membrane was then incubated with an anti-GDF8 antibody at 2 μg/ml followed by exposure to the appropriate secondary antibody conjugated to HRP.

The target of experiment [4] is T3, GDF8/TGFβ[48-72] chimera (T48): GDF8.1-47.TGFβ1.49-76.GDF8.73-109 (human GDF8 with human TGFβ-1 sequence).
T3 construct: used as CHO conditioned medium / supernatant; also called GDF8/TGFβ-1 chimeric construct
T3 chain: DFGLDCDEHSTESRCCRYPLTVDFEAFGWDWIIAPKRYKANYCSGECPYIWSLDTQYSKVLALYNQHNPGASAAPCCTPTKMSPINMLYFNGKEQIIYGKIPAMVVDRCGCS
In words: Western blot of CHO.hFurin supernatant. The protocol:
as §2
In general terms: Immunoblotting shows a protein as a band on a membrane.

For experiment [5], the target named is T1, Human GDF8 homodimer (mature human …). The experiment can be described thus: SPR Biacore 3000, buffer without BSA.
Experiment [6] has as its target T4, hGDF11 homodimer (human, UniProt O95390 299-407).
T4 sequence (looked up): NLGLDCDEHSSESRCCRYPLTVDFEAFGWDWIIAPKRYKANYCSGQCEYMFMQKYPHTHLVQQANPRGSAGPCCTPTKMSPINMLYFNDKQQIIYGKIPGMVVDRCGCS
In words: cell-based or functional assay.

The target in experiment [7] is T1, Human GDF8 homodimer (mature human …). The experiment can be described thus: cell-based or functional assay. This is another data set of the same source.
In experiment [8] the target is T2, B48 chimera: …. In words: Western blot of CHO.hFurin supernatant, antibody 2 µg/ml. The protocol:
as §2

Experiment [9] has as its target T5, B91 chimera: GDF8.1-90.BMP2.96-110.GDF8.106-109.
T5 construct: CHO.hFurin supernatant
T5 chain: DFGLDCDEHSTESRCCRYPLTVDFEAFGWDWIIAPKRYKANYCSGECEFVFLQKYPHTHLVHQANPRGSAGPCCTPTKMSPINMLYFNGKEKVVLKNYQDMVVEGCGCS
The experiment is described as above. How it is done:
as §2

Experiment [10] has as its target T6, T65 chimera: GDF8.1-64.TGFβ1.69-76.GDF8.73-109 (Mus musculus (Mouse), UniProt O08689 268-376).
T6 construct: CHO.hFurin supernatant
T6 chain: T1 sequence with R67G, G68A, G71A
The experiment is described as above. The protocol:
as §2

Experiment [11] deals with T4, hGDF11 homodimer. In words: cell-based or functional assay. The source holds these as a separate data set.
Experiment [12] has as its target T4, hGDF11 homodimer. In words: SPR, antibody captured, 25 nM antigen. How it is done: as §1
Experiment [13] addresses T1, Human GDF8 homodimer (mature human …). In words: SPR, antibody captured, 25 nM antigen. The protocol: as §1
Experiment [14] addresses T3, GDF8/TGFβ[48-72] chimera (T48): …. The experiment can be described thus: cell-based or functional assay.

Positions count from the first letter of the chain named.

B1: 8D12 (antibody, V domains shown)
VH: QVQLVESGGGVVQPGRSLRLSCAASGFTFSRYGIHWVRQAPGKGLEWVAVISYDGSDEYYVDSVKGRFSISRDNSKNTLYLQMNSLRPADSAVYYCVKGDLELGFDYWGQGTLVTVSS
VL: DIVMTQAAPSIPVIPGESVSMSCRSSKSLLYSNGHTYVYWFVQRPGQSPQLLIYRMSNLASGVPDRFSGSGSGTAFTLRISRVEAEDVGVYYCMQNLEFPLTFGAGTKLELK
notes: also called antibody 8D12; 8D12 Antibody
By Kd is commonly meant the free concentration of one partner at which half of the binding sites on the other are occupied at equilibrium, for simple one-to-one binding. For the molecule B1, the Kd in experiment [1] worked out at 0.016 nM; in experiment [5], 0.071 nM. For the same molecule, the T1/2 stood at 840 min in [1] and 139 min in experiment [5]. Besides, in experiment [2], the “IC50, luciferase bioassay, 0.5 nM GDF8” value amounted to 3.11 nM. Moreover, the “IC50, luciferase bioassay, 1 nM GDF8” value in experiment [2] was found to be 5.55 nM. The binding result in [3] and in experiment [4] was “no binding (tested: 2 µg/ml)” throughout.

B2: 1A2 (antibody, V domains shown)
VH: EVQLLESGGGLVQPGGSLRLSCAASGFTSITYAMSWVRQAPGKGLEWVSAISVSGTNTYYADSVKGRFTISRDKSKNMLYLQMNSLRAEDTAVYYCAKDLLHNWKYGTFDIWGQGTMVTVSS
VL: EIVMTQSPATLSVSPGERATLSCRASQSVDSNLVWYQQKPGQVPRLLIYGASTRATGIPARFSGSGSGTEFTLTISSLQSEDFAVYYCQQYNKWPLTFGGGTKVEIK
notes: also called 1A2 mAb
For B2, the “IC50, GDF11-inducible luciferase, A204/Smad2 cells, 0.8 nM GDF11” value with hGDF11 homodimer [6] worked out at 1400 nM. Besides, the “IC50, GDF8-inducible luciferase, A204/Smad2 cells, 0.8 nM GDF8” value in experiment [7] came to 0.8 nM. In addition, in experiment [8], the binding result was “binds”. Also, the binding result in experiment [9] is “binds”. Also, in experiment [10], the binding result was “binds”. Also, in the experiment with hGDF11 homodimer [11], the “IC50, luciferase bioassay, 0.4 nM GDF11” value was around 600 nM and the “IC50, luciferase bioassay, 0.8 nM GDF11” value was around 800 nM. For the same molecule, in experiment [2], the “IC50, luciferase bioassay, 0.5 nM GDF8” value amounted to 0.196 nM and the “IC50, luciferase bioassay, 1 nM GDF8” value turned out to be 0.363 nM. In the experiment with hGDF11 homodimer [12], this molecule returned a Kd of 0.3 nM and a T1/2 of 28 min. For the same molecule, in experiment [13], the Kd was determined as 0.32 nM and the T1/2 was 60 min.

B3: 1A2-hFc (antibody, V domains shown)
VH: B2 VH
VL: B2 VL
With B3, in experiment [14], the “approximate IC50, luciferase bioassay with GDF8/TGFβ[48-72] conditioned medium” value amounted to 0.357 nM.
